Measurements: CN114539393A (BEIJING NEUABO XINESCAPE BIOTECHNOLOGY CO LTD, dated 2022)

Target: T1, SARS-CoV2的N蛋白 (SARS-CoV2, UniProt P0DTC9 1-419)
T1 construct: also called 新冠状病毒N蛋白; 2019-新型冠病毒N蛋白
Experiment: ELISA, N protein coated at 2 ug/ml, VHH at 10.0 and 1.0 ug/ml, anti-Myc-HRP detection, OD450

| Binder | binding result |
| --- | --- |
| N2-8单域抗体 (VHH, also called 单域抗体N2-8; N2-8-pSJF2; not shown: c-myc and His6 tags from the pSJF2 vector) VHH: QVQLVESGGGSVQAGGSLRLSCAASGRTFSIYAMGWFRQAPGKEREFVAAISKSGEGTYYADSVKGRFTISRDNAKNTVALQMNSLKSEDTAVYYCAASRVVVSGLSPSDYAYWGQGTQVTVSS | binds |
| N2-10单域抗体 (VHH, also called 单域抗体N2-10; N2-10-PSJF; not shown: c-myc and His6 tags from the pSJF2 vector) VHH: QVQLVESGGGLVQTGGSLGVSCAASGRTFSIYAMGWFRQAPGKEREFVAAISKSGDGKYYADSVKGRFTISRDNAKNTVALQMNSLKFEDTAVYYCVASRTVVSGASPDEYDLWGQGTQVTVSS | binds |
